Measurements as given in patent publication US10472652B2, “Chemical engineering processes and apparatus for the synthesis of compounds” (TEEWINOT T[…], priority 2013, dated 2019).

Tests used:
Assay type in all cases: biochemical
[1] = molecular target: T1, THCA synthase (Cannabis sativa, UniProt Q8GTB6); test: effect of concentration of non-aqueous solvent (DMSO) on THCA synthase catalytic rate and THCA:CBCA product ratio
T1 construct: His-tag (C); made in house; host or cells: Pichia pastoris (PichiaPink, pPink-HC vector), secreted into the medium; cell-free T3 supernatant used
T1 sequence (Q8GTB6 29-545): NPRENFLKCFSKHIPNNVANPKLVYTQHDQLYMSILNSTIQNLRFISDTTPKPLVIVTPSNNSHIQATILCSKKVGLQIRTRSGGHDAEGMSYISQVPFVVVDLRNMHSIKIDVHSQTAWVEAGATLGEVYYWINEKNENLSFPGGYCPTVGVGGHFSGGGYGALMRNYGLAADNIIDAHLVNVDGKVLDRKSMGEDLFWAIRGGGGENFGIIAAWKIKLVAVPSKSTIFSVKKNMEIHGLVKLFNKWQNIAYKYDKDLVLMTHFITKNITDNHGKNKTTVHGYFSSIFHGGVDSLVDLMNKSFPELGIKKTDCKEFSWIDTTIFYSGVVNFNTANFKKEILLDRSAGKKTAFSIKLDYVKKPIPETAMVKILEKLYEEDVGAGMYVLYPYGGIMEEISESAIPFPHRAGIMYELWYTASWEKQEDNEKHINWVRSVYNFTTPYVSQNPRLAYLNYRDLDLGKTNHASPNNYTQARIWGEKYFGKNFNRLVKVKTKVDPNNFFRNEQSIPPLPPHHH
Procedure: Accordingly, the effects of temperature, pH, solvent, ionic strength and incubation times on the distribution ratio of THCA to CBCA products were studied. In one embodiment, the effect of solvent on product distribution ratio was evaluated. Cannabinoids are lipohilic in nature and are poorly solubilized in aqueous solvents. The poor solubility of cannabinoids in aqueous solvent has prevented the development of ex-vivo enzyme catalyzed methodologies for the synthesis of cannabinoids and cannabinoid analogs.
The catalytic rate […] slightly as concentration of the non-aqueous solvent is increased. Thus, 20% DMSO gave the highest catalytic rate, approximately 2.5-fold faster than catalysis in buffer alone. Table 1 illustrates the effect of concentration of non-aqueous solvent on the rate of catalytic activity.
As further illustrated in this table, the concentration of non-aqueous solvent can alter the ratio of THCA to CBCA produced as product. Thus, greater levels of THCA are obtained when the concentration of DMSO in buffer is less that 20%, with a THCA:CBCA distribution ratio of 10:1 observed when 10% DMSO is used as the solvent.

[2] = molecular target: T1, THCA synthase; test: pH study: ratio of THCA to CBCA produced when THCA synthase is contacted with CBGA
Procedure: Table 3 illustrates the results of a pH study that was aimed at identifying the effect of pH on product ratio, namely, the ratio of THCA to CBCA compounds produced when THCA synthase is contacted with CBGA as substrate. The pH of the reaction mixture in this study ranged from a pH of 4.0 to 8.0.
In fact, THCA is the major product when catalysis is carried out at a pH of 4.0. Increasing the pH of the reaction mixture altered the product distribution ratio with approximately 30% CBCA being produced as product at a pH of 5.0 and around […] CBCA being produced as product at a pH value of 6.0. A further increase in pH of the reaction mixture, such as an increase of the pH of the reaction mixture to a pH of 7.0 gave CBCA exclusively as the product of THCA synthase catalyzed conversion of CBGA. Any further increases in pH, moreover, reduced or eliminated catalytic activity of THCA synthase, with no product observed for a reaction mixture at a pH of 8.0.

[3] = molecular target: T1, THCA synthase; test: effect of detergent SDS on THCA synthase conversion of CBGA; conditions: SDS added to 100 mM citrate buffer containing cyclodextrin
Procedure: In contrast, addition of SDS to 100 mM citrate buffer containing cyclodextrin destroyed THCA synthases ability to catalyze reaction. Only 8% of the substrate was converted to product under these reaction conditions with the formation of THCA being favored as product under these reaction conditions.

[4] = molecular target: T1, THCA synthase; test: catalytic activity of THCA synthase from independent colonies of transformed pPink yeast cells (conversion of CBGA to THCA); conditions: 25 μl cell free supernatant of T3 sample, 100 mM citrate buffer, 10% DMSO, final pH 5.0, 2 hours at 30° C.
Procedure: After 24 hours a 100 μL of the cell sample was removed to which was added 100 μL of 40% methanol to induce enzyme production. This methanolic sample was then centrifuged at 12,000 rpm for 5 minutes and the supernatant and pellet were saved as the T1 sample. A second culture sample was obtained after a 48 hour incubation period and treated with methanol as described above. After centrifugation, the supernatant and pellet are saved as the T2 sample. At 72 hours the entire incubation mixture is treated with an appropriate volume of 40% methanol. The supernatant and pellet obtained from methanolic treatment of the culture after a 72 hour incubation period is labeled as T3. The T3 supernatant was spun through an Amicon 30 kD protein filter and analyzed for protein using an SDS-PAGE gel.
The catalytic activity of THCA synthase was measured by incubating 25 μl of the cell free supernatant from a T3 sample with 25 μl of a 1 mg/ml CBGA stock in 200 μl of a 100 mM citrate buffer at pH 4.8 having 10% DMSO for 2 hours at 30° C. The final concentration of CBGA in the reaction mixture was 0.1 mg/ml and the final pH is 5.0. Table 4 illustrates the data related to the catalytic activity of THCA synthase obtained from independent colonies of transformed pPink yeast cells, namely. pPink yeast cells that were transformed using linearized THCA synthase plasmids. Culture samples that converted greater than 20% of the substrate CBGA to product THCA were selected for scale up.

B1: THCA synthase: recombinant His-tagged tetrahydrocannabinolic acid synthase secreted by transformed Pichia pastoris yeast cells (protein, UniProt Q8GTB6 29-545, looked up)
Tetrahydrocannabinolic acid …: T1 sequence (Q8GTB6 29-545)
modifications: His tag
notes: recombinant His-tagged tetrahydrocannabinolic acid synthase secreted by transformed Pichia pastoris yeast cells
- FASTER (catalytic rate relative to buffer alone) ([1]; DMSO 0%): 1X
- FASTER (catalytic rate relative to buffer alone) ([1]; DMSO 10%): 1.2X
- FASTER (catalytic rate relative to buffer alone) ([1]; DMSO 30%): 0.3X
- CBCA (share of product) ([2]; pH 4, substrate CBGA): Trace
- THCA (share of product) ([2]; pH 4, substrate CBGA): 100%
- THCA (share of product) ([2]; pH 5, substrate CBGA): 70%
- THCA (share of product) ([2]; pH 6, substrate CBGA): 85%
- CBCA (share of product) ([2]; pH 7, substrate CBGA): 100%
- THCA (share of product) ([2]; pH 7, substrate CBGA): 0%
- CBCA (share of product) ([2]; pH 8, substrate CBGA): 0%
- THCA (share of product) ([2]; pH 8, substrate CBGA): 0%
- substrate converted to product [3]: 8%

B2: Spe THC #23: cell free supernatant with THCA synthase from a pPink yeast colony transformed with Spe I linearized THCA synthase plasmid (protein, UniProt Q8GTB6 29-545, looked up)
Tetrahydrocannabinolic acid …: T1 sequence (Q8GTB6 29-545)
modifications: yeast culture supernatant
notes: cell free supernatant with THCA synthase from a pPink yeast colony transformed with Spe I linearized THCA synthase plasmid
- % Conversion of CBGA to THCA in reaction containing 0.1 mg/ml CBGA. [4]: 18.7%
